Assay results reported in patent US5962246A.

Substrate: O=c1ccn([C@H]2C[C@H](O)[C@@H](COP(=O)(O)OP(=O)(O)OP(=O)(O)O)O2)c(=O)[nH]1
Test: purified protein, by the assay type
Conditions: other: substrate dUTP, 20 mM Tris-HCl pH 7.5, 37° C., purified recombinant DUT-N

B1: recombinant human dUTPase nuclear isoform DUT-N (Seq. ID No. 2), expressed in baculovirus/Sf21 insect cells (Homo sapiens) (protein)
chain: MPCSEETPAISPSKRARPAEVGGMQLRFARLSEHATAPTRGSARAAGYDLYSAYDYTIPPMEKAVVKTDIQIALPSGCYGRVAPRSGLAAKHFIDVGAGVIDEDYRGNVGVVLFNFGKEKFEVKKGDRIAQLICERIFYPEIEEVQALDDTERGSGGFGSTGKN
  Km: 2.5 µM
